# Source: the DeepSol protein solubility set
# Test: soluble on expression in E. coli; label from the status in PepcDB or PDB records
row,Sequence,soluble on expression in E. coli
1,MSLAARQTVTDVDSFSKELMTASPDLLGSMVKAFAEALMGAEVDGICNAEYGEISPERVNRRNGYRAREWDTRAGTIELAVPKLRQGSYFPEWLLTRRRRAEQALISVVATSYLLGVSTRRVDKLVEQLGVAHISKSQVSVLAKHLDTQVEAFRSRPLDAGPYRFVQADALTMKVREDGRVINVHCLLAVGVNGDGHREILGLDVVSSEDGAGWLAFFRGLVARGLSGVRLVTSDAHRGLVNAIGSTLPGASWQRCRTHYLRDLLTMTPKSSQPWVATLVRTVFDQADANEVGGQFDRVTEALSEKLPKAADHLSGAKADLLAFTTYPREVWRQIWSSNPQERLNKEIRRRTDVVGIFPDRDAIIRLVGAVLAEQHDEWIETHRYFGLEILAKVDATNKKSDTPEIGVTEGHHHHHH,soluble
2,MSLADLFASPDDAAAGGAPDTAPLADRLRPRTLGDVVGQEHLTGPDGAIGRMVAAGRLSSIIFWGPPGTGKTTISRLLAHAVGMRFEPISAVFSGVADLKKVFAAAKDHARHGEKTLLFVDEIHRFNRAQQDSFLPFVENGTVTLVGATTENPSFELNAALLSRAQVLILRRLDAAALEQLLDRAEGLMERPLPLDPAAREALLASADGDGRFLLNQVETLYAIDIPEPLDPAGLSALLHRRVAVYDKDREGHYNLISALHKSLRGSDPQAALYYLARMLTAGEEPLYVLRRLVRFATEDIGLADPQAVVQCLAAKDAYDFLGSPEGELAIVQACLYCATAPKSNAAYMAMKASFRSARETGSLMPPMNIVNAPTKLMKQVGYGKNYQYDHDAAEGFSGANYWPEEMEAQTFYAPTDRGFEARVAERMAYWDRLRAERGEGHHHHHH,soluble
3,MSLAELNFKAIEEKWQKRWLEAKIFEPNIRDKPKEKKFYITVAFPYLSGHLHVGHARTYTIPDVIARFKRMQGYNVLFPMAWHITGSPIVGIAERIKNRDPKTIWIYRDVYKVPEEILWTFEDPINIVKYFMKAAKETFIRAGFSVDWSREFYTTSLFPPFSKFIEWQFWKLKEKGYIVKGAHRVRWDPVVGTPLGDHDLMEGEDVPILDYIIIKFELRENGEVIYLPAATLRPETVYGVTNMWVNPNATYVKAKVRRKDKEETWIVSKEAAYKLSFQDREIEVIEEFKGEKLIGKYVRNPVSGDEVIILPAEFVDPDNATGVVMSVPAHAPFDHVALEDLKRETEILEKYDIDPRIVENITYISLIKLEGYGDFPAVEEVNKLGIKSQKDKEKLEQATKTIYKAEYHKGIFKVPPYEGKPVQEVKEAIAKEMLEKGIAEIMYEFAEKNVISRFGNRAVIKIIHDQWFIDYGNPEWKEKARKALERMKILPETRRAQFEAIIDWLDKKACARKIGLGTPLPWDPEWVIESLSDSTIYMAYYTISRHINKLRQEGKLDPEKLTPEFFDYIFLEEFSEDKEKELEKKTGIPAEIIHEMKEEFEYWYPLDWRCSGKDLIPNHLTFFIFNHVAIFREEHWPKGIAVNGFGTLEGQKMSKSKGNVLNFIDAIEENGADVVRLYIMSLAEHDSDFDWRRKEVGKLRKQIERFYELISQFAEYEVKGNVELKDIDRWMLHRLNKAIKETTNALEEFRTRTAVQWAFYSIMNDLRWYLRRTEGRDDEAKRYVLRTLADVWVRLMAPFTPHICEELWEKLGGEGFVSLAKWPEPVEEWWNETIEAEEEFIRSVMEDIKEIIEVAKIENAKRAYIYTAEDWKWKVAEVVSEKRDFKSSMEELMKDSEIRKHGKEVAKIVQKLIKERTFDVKRINEEKALREAKEFMEKELGIEIIINPTEDKGGKKKQAMPLKPAIFIEEGHHHHHH,not soluble
4,MSLAEPIESGKQYVELTSAVPVAVPGKIEVIELFWYGCPHCYAFEPTINPWVEKLPSDVNFVRIPAMFGGPWDAHGQLFITLDTMGVEHKVHAAVFEAIQKGGKRLTDKNDMADFVATQGVNKDDFLKTFDSFAVKGKIAQYKELAKKYEVTGVPTMIVNGKYRFDLGSAGGPEKTLQVADQLIDKERAAAKAEGHHHHHH,soluble
5,MSLAEPLTVSPELTANYAYFFDLDGTLAEIKPHPDQVVVPHKILQLLDRLAAHNAGALALISGRSMTELDALAKPFRFPLAGVHGAERRDISGKTHIVRLPEAVVREVEALLRSTLAALPGTELETKGMAFALHYRQAPEHEAALLALAQHVTQHWPQLALQPGKCVVEIKPKGTNKGEAIAAFMQEAPFTGRIPVFVGDDLTDEAGFGVVNHAGGISVKVGVGATQAAWRLESVPDVWRWLEQINYPQQEQQVMNNRRDGYESFSRSIEGHHHHHH,soluble
6,MSLAEQKPGEGQKTAIKIGVMIDLSGPLTTYGNSIKNTLEIAKEDINAYLEEKGLPYTVEFYVEDTKVDPKIALEKIQSLHSKGINLVIGPMGSGEVSNIKGYVQSNKIIIISPSSTLLPSLLGITKPEDKKYIFRFVGTDDLQTDAITAELKDLGIKAVIITYTGNDWGKGLYETIKPKLDAAGIEIVGEPVEYPSPPPADFSPYIATLESKLNDALQKYDASEVAVVAFSYEEAATMLAQTKDDSPLLNVLWLGCDGTALSDKMLEVCDKASKVRMLSTLFESKGEAYEQLAKKYKERGFGDSPYQYALNAYDAAWVLVLSYIEVVKEKGSYDPDAMNAKIPEVTEKYSKGEYGVKPVSGYIKLNEWNDRASGDYAIYEVTQDCKWQTAGIWKFTENKIEWLEGHHHHHH,soluble
7,MSLAFNYDEYLRVDKMPTQWCWGCGDGVVLKCIIRAIEKLGWNMDDVCLVSGIGCSGRMSSYVNCNTVHTTHGRAIAYATGIKLANPSKHVIVVSGDGDTLAIGGNHTIHGCRRNIDLTHIVINNFIYGLTNSQTSPTTPKGFYTVTAQFGNIDPNFDACELTKAAGASFVARGNVIEANKLENLIYKALAHKGYSFVDVFSNCHINLGRKNKMGEAVAMLDWIKNRVVDKAKFESMDFEERKDKFPTGILHEDNSQPEYCHAYEEVRRAAKEKRMVDLGALKEGHHHHHH,not soluble
8,MSLAIRVVCISDTHDLKVDIPRGDILIHAGDLTDGGTVSDIQKQLDWLKEQPHPIKVVVAGNHDSWFDQKSRPEEDARSGAKPDMDGLIYLESGLTVQKVKGRTVNIFGVPDIPEIGPKEFAFQYATDNHPWLSKVPPQTDILVTHCPPKHHLDLGLGDSNLLREVWRVKPRLHVFGHVHCAYGKESVFFDNFQQTYERIMSRPRRGPILDFIPNEAWLDYLRFLAQGIHAVAWKWIMSGPGSNNGSLMVNAAQMKGNSGKVKSRAVVVEIEGHHHHHH,soluble
9,MSLAKLRPTKTFKPKPPAGLPDRETLLAFLRDAGETGKADIARHFGLKGADRRALREMIRELEAQGALAKRGRKGFAEAGSLPPVGVADVVERDGDGELYVKLTKSDDDVPNVRLAPGKGEAAAGAPGLGDRLLVRFERLETGEFEAKLIKKLGQSAHKILGVIRKHRREVRVEPVDRKSKESLVLDPSVAHDFKEGDLVLAQVGTHGGRYGPKPGKVLEVVGTENDPRAASLIAIHSHGIPTGFSEAAEAEAKTAVEPTLAGREDLRDLPFVTIDPVDARDHDDAVYAHPDEDETNKGGFVVWVAIADVAAYVRPGSALDRDAREKGNSVYFPDRVEPMLPETLSNGLCSLRESENRATLAVRMVFDKSGRKKGHRFVRGLMRSAAKLSYEQAQAAIDGQPDDKAGPLLDPILKPLWDAYRTMKIGRDARSPLAIESDERRIIIKGGEITSITKRASLEAHKLIEEMMVQANVCAAESLEAKRSPLIYRVHDTPSLEKVQNLADFLQTLEIRWSKGEAPQTARFNKLLEETRESPNAAIINEVVLRTQMQAHYSADNIGHFGLNLAKYAHFTSPIRRYADLIVHRGLIRALGLGTDGLTDQDIAQIKDTAEVITHAERRAMAAERDATDRYIAAFLADRVGATFEGRITGVTRFGLFIKLADTGADGLVPVSSLGQEFFVHDDKMHALVGERTGKRWPLGLSVEVKLVEATPVTGGLLFEMLSEPLPPDPKMPRPRLGARRQAAVKPRGGLPKGVRRGKRREGHHHHHH,soluble
10,MSLAKNRLRAIPLGGAGEVGRNMWVLEQNDEILVLDCGVMFPEADMLGVDLVLPDITYLRDQKDKIKAIVLTHGHEDHIGAVPYLVPELDFPPIYGTPLTLGMLAGKLKEHRLLDRARLVKMQAGESFTVGSFTIEPFSVAHSIPDTVGLAIDTPVGLAIYLTDWKFDHTPVDGRPTDLVKLSELGRRSPLLLITDCVRVESKGYTPSEQVVGEAFDSIFATAPGRIIVATFASNVSRVQQVIDSAEAYGRKVVVAGRSMENTTRIALELGYLRAQQGTLIRPQEAAGLADDQVAVICTGSQGEPMSALARMANRDYPHVKIKEGDTVVVSATPIPGNEVSVNRVINNLFRLGAEVIYGGSPSSLAVHVSGHAAQEELKMALAILRPEFVVPFHGDYRHMMLYRKLALGMGGLFSESNVIIPENEGHHHHHH,not soluble
